# Experimental data taken from patent US20160160238.
# Key:
# Assay in all cases: cell_activity
# [1] = tested on: TALEN ssNF1ex42.2 left (synthetic (Xanthomonas TALE-FokI)?); conditions: HDR by RFLP, pig fibroblasts, 3 days 30 C; pair with P4, 16 bp spacer
# [2] = tested on: TALEN ssTP53 E6 right (synthetic (Xanthomonas TALE-FokI)?); conditions: Surveyor (Cel) assay, co-transfected with ssNF1 42.3; pair with P7, 16 bp spacer
# [3] = tested on: TALEN ssNF1ex42.2 right (synthetic (Xanthomonas TALE-FokI)?); conditions: HDR by RFLP, pig fibroblasts, 3 days 30 C; pair with P3, 16 bp spacer
# [4] = tested on: TALEN ssNF1ex42.3 right (synthetic (Xanthomonas TALE-FokI)?); conditions: HDR by RFLP, pig fibroblasts, 3 days 30 C; pair with P5, 16 bp spacer; 25.5% when co-transfected with ssTP53 E6
# [5] = tested on: TALEN ssNF1ex42.3 left (synthetic (Xanthomonas TALE-FokI)?); conditions: HDR by RFLP, pig fibroblasts, 3 days 30 C; pair with P6, 16 bp spacer; 25.5% when co-transfected with ssTP53 E6
# [6] = tested on: TALEN ssTP53 E6 left (synthetic (Xanthomonas TALE-FokI)?); conditions: Surveyor (Cel) assay, co-transfected with ssNF1 42.3; pair with P8, 16 bp spacer
# [7] = tested on: TALEN ssNF1ex42.1 right (synthetic (Xanthomonas TALE-FokI)?); conditions: HDR by RFLP, pig fibroblasts, 3 days 30 C; pair with P1, 16 bp spacer
# [8] = tested on: TALEN ssNF1ex42.1 left (synthetic (Xanthomonas TALE-FokI)?); conditions: HDR by RFLP, pig fibroblasts, 3 days 30 C; pair with P2, 16 bp spacer
sequence,measurement,setting,value
"AAGCACAATGATGATGC (double strand) [NF1 exon 42 site, 42.2 left half-site]",activity (% allele modification),[1],45.1
"AAGTCAGAGTACATG (double strand) [TP53 exon 6 site, right half-site]",activity,[2],11.8 % cutting
"ACTGCGATCCTTGATA (double strand) [NF1 exon 42 site, 42.2 right half-site]",activity (% allele modification),[3],45.1
"CCTTGATAAGCTGATA (double strand) [NF1 exon 42 site, 42.3 right half-site]",activity (% allele modification),[4],27.2
"GATGATGCCAAACGAC (double strand) [NF1 exon 42 site, 42.3 left half-site]",activity (% allele modification),[5],27.2
"GGCACCCGTGTCCGCGC (double strand) [TP53 exon 6 site, left half-site]",activity,[6],11.8 % cutting
"GTTACTGCGATCCTTG (double strand) [NF1 exon 42 site, 42.1 right half-site]",activity (% allele modification),[7],54.2
"TGTAAGCACAATGATGA (double strand) [NF1 exon 42 site, 42.1 left half-site]",activity (% allele modification),[8],54.2
